Laboratory results taken from patent US20240124607A1 (Merck Sharp & Dohme, published 2024).

How the values were obtained:
human CEACAM5 on cells = target: T1, human CEACAM5 on cells (human, UniProt P06731 35-685); experiment: flow cytometry, MKN-45 cells
T1 construct: tumour cell lines with endogenous CEACAM5, or B16F10 engineered to express hCEACAM5; also called CEACAM5 on MKN-45, HPAF-II, SK-CO-1, LoVo, BxPC-3, Kato-III, LS-174T, ZR-75-30; hCEACAM5-B16F10
T1 sequence: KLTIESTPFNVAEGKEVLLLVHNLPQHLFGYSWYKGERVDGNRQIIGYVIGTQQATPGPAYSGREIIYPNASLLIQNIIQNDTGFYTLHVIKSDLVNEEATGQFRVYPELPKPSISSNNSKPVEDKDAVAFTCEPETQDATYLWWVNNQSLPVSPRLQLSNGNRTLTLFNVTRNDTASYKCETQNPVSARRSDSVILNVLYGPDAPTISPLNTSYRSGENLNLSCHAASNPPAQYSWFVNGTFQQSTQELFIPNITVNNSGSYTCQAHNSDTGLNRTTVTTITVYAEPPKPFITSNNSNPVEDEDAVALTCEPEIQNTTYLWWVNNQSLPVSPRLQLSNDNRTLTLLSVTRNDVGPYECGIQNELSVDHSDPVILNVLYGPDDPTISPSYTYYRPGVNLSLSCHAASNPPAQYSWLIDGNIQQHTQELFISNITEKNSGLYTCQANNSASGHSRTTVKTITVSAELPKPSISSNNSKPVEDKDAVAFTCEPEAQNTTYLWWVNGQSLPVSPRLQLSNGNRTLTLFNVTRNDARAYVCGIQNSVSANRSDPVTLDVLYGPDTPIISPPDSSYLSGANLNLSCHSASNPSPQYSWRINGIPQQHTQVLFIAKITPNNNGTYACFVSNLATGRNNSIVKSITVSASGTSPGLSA
Protocol: MKN-45 and HPAF-II human cancer cell lines were diluted into FACS buffer and 100,000 cells of each cell type were seeded per well in duplicate into 96-well plates for FACS staining. The cells were washed with PBS, incubated in a 1:2000 dilution of live/dead dye in PBS for 15 minutes, and then washed with FACS buffer. AB0264, AB0411, AB0466, and AB0621 were diluted into FACS buffer, and 50 μl of each diluted TriNKET was added to the cells. After incubation on ice for 30-120 minutes, the cells were washed with FACS buffer. Anti-human IgG-Fc secondary antibody was diluted into FACS buffer, and 50 μl was added per well for detection of the bound TriNKETs. The cells were incubated for 30-60 minutes on ice and then washed with FACS buffer. 50 μl of fixation buffer was added to each well and the cells were incubated for 10 minutes at room temperature. The cells were washed with FACS buffer and resuspended in FACS buffer for analysis with ThermoFisher Attune NxT, BD FACS Celesta SN #H66034400085, or BD FACS Celesta SN #H66034400160.

Human CEACAM5 I112V = target: T2, Human CEACAM5 I112V (human, UniProt P06731 35-685, limits assumed); experiment: SPR, 37C, pH 7.4; reference E398
T2 sequence: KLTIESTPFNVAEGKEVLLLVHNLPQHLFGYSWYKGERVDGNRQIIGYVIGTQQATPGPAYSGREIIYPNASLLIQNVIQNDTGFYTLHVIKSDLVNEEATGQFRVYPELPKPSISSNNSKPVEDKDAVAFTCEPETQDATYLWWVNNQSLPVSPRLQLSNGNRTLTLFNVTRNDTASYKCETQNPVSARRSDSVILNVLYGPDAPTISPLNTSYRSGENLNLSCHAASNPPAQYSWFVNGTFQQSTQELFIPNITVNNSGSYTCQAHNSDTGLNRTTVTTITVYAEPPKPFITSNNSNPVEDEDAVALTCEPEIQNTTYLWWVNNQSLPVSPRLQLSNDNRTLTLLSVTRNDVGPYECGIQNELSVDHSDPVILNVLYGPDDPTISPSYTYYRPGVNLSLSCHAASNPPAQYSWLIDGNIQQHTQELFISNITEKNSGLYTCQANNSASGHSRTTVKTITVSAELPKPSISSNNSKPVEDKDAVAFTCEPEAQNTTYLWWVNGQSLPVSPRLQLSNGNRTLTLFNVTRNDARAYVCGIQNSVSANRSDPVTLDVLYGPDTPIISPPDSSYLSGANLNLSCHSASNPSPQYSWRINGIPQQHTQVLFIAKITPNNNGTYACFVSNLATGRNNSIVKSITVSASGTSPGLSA

[1] = target: T3, Human CEACAM5 I80V V83A I112V I113T (human, UniProt P06731 35-685, limits assumed); experiment: SPR, 37C, pH 7.4; reference E398
T3 chain: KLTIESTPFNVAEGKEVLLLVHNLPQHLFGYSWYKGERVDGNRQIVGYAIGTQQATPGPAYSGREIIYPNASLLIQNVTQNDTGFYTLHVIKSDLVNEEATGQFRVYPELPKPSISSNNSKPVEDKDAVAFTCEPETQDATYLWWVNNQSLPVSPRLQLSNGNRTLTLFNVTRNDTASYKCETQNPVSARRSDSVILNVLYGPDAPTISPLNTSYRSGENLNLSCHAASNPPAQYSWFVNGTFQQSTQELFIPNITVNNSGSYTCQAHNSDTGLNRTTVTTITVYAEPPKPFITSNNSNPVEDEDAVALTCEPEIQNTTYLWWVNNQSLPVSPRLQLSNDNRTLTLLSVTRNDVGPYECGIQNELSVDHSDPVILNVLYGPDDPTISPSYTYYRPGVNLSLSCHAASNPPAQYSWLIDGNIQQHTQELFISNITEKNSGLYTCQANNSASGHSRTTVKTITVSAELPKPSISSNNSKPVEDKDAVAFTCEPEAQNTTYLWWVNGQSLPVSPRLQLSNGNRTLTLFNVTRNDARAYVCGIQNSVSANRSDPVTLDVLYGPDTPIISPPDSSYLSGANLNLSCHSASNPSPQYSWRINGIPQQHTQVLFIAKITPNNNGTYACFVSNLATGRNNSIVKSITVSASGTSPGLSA

| Binder | EC50 (human CEACAM5 on cells) [nM] | Max FOB (human CEACAM5 on cells) [fold over background] | KD/KD(Ref) (Human CEACAM5 I112V) [fold] | KD/KD(Ref) [1] [fold] |
| --- | --- | --- | --- | --- |
| AB0466 F3' CEACAM5 TriNKET (bispecific antibody, human IgG1, kappa) not shown heavy: EVQLVESGGGLVKPGGSLRLSCAASGFTFSSYSMNWVRQAPGKGLEWVSSISSSSSYIYYADSVKGRFTISRDNAKNSLYLQMNSLRAEDTAVYYCARGAPIGAAAGWFDPWGQGTLVTVSSASTKGPSVFPLAPSSKSTSGGTAALGCLVKDYFPEPVTVSWNSGALTSGVHTFPAVLQSSGLYSLSSVVTVPSSSLGTQTYICNVNHKPSNTKVDKKVEPKSCDKTHTCPPCPAPELLGGPSVFLFPPKPKDTLMISRTPEVTCVVVDVSHEDPEVKFNWYVDGVEVHNAKTKPREEQYNSTYRVVSVLTVLHQDWLNGKEYKCKVSNKALPAPIEKTISKAKGQPREPQVCTLPPSRDELTENQVSLTCLVKGFYPSDIAVEWESNGQPENNYKTTPPVLDSDGSFFLYSWLTVDKSRWQQGNVFSCSVMHEALHNHYTQKSLSLSPG light: DIQMTQSPSSVSASVGDRVTITCRASQGISSWLAWYQQKPGKAPKLLIYAASSLQSGVPSRFSGSGSGTDFTLTISSLQPEDFATYYCQQGVSFPRTFGGGTKVEIKRTVAAPSVFIFPPSDEQLKSGTASVVCLLNNFYPREAKVQWKVDNALQSGNSQESVTEQDSKDSTYSLSSTLTLSKADYEKHKVYACEVTHQGLSSPVTKSFNRGEC | 15.2 | 111 | 1.6 | 8.5 |
| AB0621 F3' CEACAM5 TriNKET (bispecific antibody, human IgG1, kappa) DIVMTQSPDSLAVSLGERATINCKSSHSLLYGNFQNNYLAWYQQKPGQPPKLLIYWASTRESGVPDRFSGSGSGTDFTLTISSLQAEDVAVYYCQQYYSYPYTFGCGTKLEIKGGGGSGGGGSGGGGSGGGGSQVQLVQSGAEVKKPGASVKVSCKASGYTFTAYTIHWVRQAPGQCLEWMGYINPSSGYTEYNQKFKDRTTLTADTSISTAYMELSRLRSDDTAVYYCTREGGLLWFDYWGQGTLVTVSSGSDKTHTCPPCPAPELLGGPSVFLFPPKPKDTLMISRTPEVTCVVVDVSHEDPEVKFNWYVDGVEVHNAKTKPREEQYNSTYRVVSVLTVLHQDWLNGKEYKCKVSNKALPAPIEKTISKAKGQPREPRVYTLPPCRDELTKNQVSLTCLVKGFYPSDIAVEWESNGQPENNYKTTPPVLVSDGSFTLYSKLTVDKSRWQQGNVFSCSVMHEALHNHYTQKSLSLSPG heavy: EVQLVESGGGLVKPGGSLRLSCAASGFTFSSYSMNWVRQAPGKGLEWVSSISSSSSYIYYADSVKGRFTISRDNAKNSLYLQMNSLRAEDTAVYYCARGAPIGAAAGWFDPWGQGTLVTVSSASTKGPSVFPLAPSSKSTSGGTAALGCLVKDYFPEPVTVSWNSGALTSGVHTFPAVLQSSGLYSLSSVVTVPSSSLGTQTYICNVNHKPSNTKVDKKVEPKSCDKTHTCPPCPAPELLGGPSVFLFPPKPKDTLMISRTPEVTCVVVDVSHEDPEVKFNWYVDGVEVHNAKTKPREEQYNSTYRVVSVLTVLHQDWLNGKEYKCKVSNKALPAPIEKTISKAKGQPREPQVCTLPPSRDELTENQVSLTCLVKGFYPSDIAVEWESNGQPENNYKTTPPVLDSDGSFFLYSWLTVDKSRWQQGNVFSCSVMHEALHNHYTQKSLSLSPG light: DIQMTQSPSSVSASVGDRVTITCRASQGISSWLAWYQQKPGKAPKLLIYAASSLQSGVPSRFSGSGSGTDFTLTISSLQPEDFATYYCQQGVSFPRTFGGGTKVEIKRTVAAPSVFIFPPSDEQLKSGTASVVCLLNNFYPREAKVQWKVDNALQSGNSQESVTEQDSKDSTYSLSSTLTLSKADYEKHKVYACEVTHQGLSSPVTKSFNRGEC | 20.6 | 51.3 | 2.3 | 1.3 |
| AB0264 F3' CEACAM5 TriNKET (bispecific antibody, human IgG1, kappa) DIVMTQSPDSLAVSLGERATINCKSSHSLLYGNFQNNYLAWYQQKPGQPPKLLIYWASTRESGVPDRFSGSGSGTDFTLTISSLQAEDVAVYYCQQYYSYPYTFGCGTKLEIKGGGGSGGGGSGGGGSGGGGSQVQLVQSGAEVKKPGASVKVSCKASGYTFTAYTIHWVRQAPGQCLEWMGYINPSSGYTEYNQKFKDRTTLTADTSIPTAYMELSRLRSDDTAVYYCTREGGLLWFDYWGQGTLVTVSSGSDKTHTCPPCPAPELLGGPSVFLFPPKPKDTLMISRTPEVTCVVVDVSHEDPEVKFNWYVDGVEVHNAKTKPREEQYNSTYRVVSVLTVLHQDWLNGKEYKCKVSNKALPAPIEKTISKAKGQPREPRVYTLPPCRDELTKNQVSLTCLVKGFYPSDIAVEWESNGQPENNYKTTPPVLVSDGSFTLYSKLTVDKSRWQQGNVFSCSVMHEALHNHYTQKSLSLSPG heavy: EVQLVESGGGLVKPGGSLRLSCAASGFTFSSYSMNWVRQAPGKGLEWVSSISSSSSYIYYADSVKGRFTISRDNAKNSLYLQMNSLRAEDTAVYYCARGAPIGAAAGWFDPWGQGTLVTVSSASTKGPSVFPLAPSSKSTSGGTAALGCLVKDYFPEPVTVSWNSGALTSGVHTFPAVLQSSGLYSLSSVVTVPSSSLGTQTYICNVNHKPSNTKVDKKVEPKSCDKTHTCPPCPAPELLGGPSVFLFPPKPKDTLMISRTPEVTCVVVDVSHEDPEVKFNWYVDGVEVHNAKTKPREEQYNSTYRVVSVLTVLHQDWLNGKEYKCKVSNKALPAPIEKTISKAKGQPREPQVCTLPPSRDELTENQVSLTCLVKGFYPSDIAVEWESNGQPENNYKTTPPVLDSDGSFFLYSWLTVDKSRWQQGNVFSCSVMHEALHNHYTQKSLSLSPG light: DIQMTQSPSSVSASVGDRVTITCRASQGISSWLAWYQQKPGKAPKLLIYAASSLQSGVPSRFSGSGSGTDFTLTISSLQPEDFATYYCQQGVSFPRTFGGGTKVEIKRTVAAPSVFIFPPSDEQLKSGTASVVCLLNNFYPREAKVQWKVDNALQSGNSQESVTEQDSKDSTYSLSSTLTLSKADYEKHKVYACEVTHQGLSSPVTKSFNRGEC | 24.6 | 55 | – | – |
